Publication PMC8177486
Changes are numbered by the printed parent chain. Numbers in names are those of the source. One block for each binder: values may come before it.

Biological target: KEAP1_(312–624), human KEAP1 Kelch repeat domain (human) (UniProt Q14145)
Assay: fluorescence polarisation

B2: Nrf2_(34–100) D77A (domain or fragment)
chain: REVFDFSQRRKEYELEKQKKLEKERQEQLQKEQEKAFFAQLQLAEETGEFLPIQPAQHIQSETSGSA
Kd: 4400 nM

B3: Nrf2_(34–100) E78A (domain or fragment)
chain: B2 chain with A44D, E45A
Kd: 25 nM

B5: Nrf2_(34–100) wild type (domain or fragment)
chain: B2 chain with A44D
Kd: 10 nM

B8: Nrf2_(34–100) T80A (domain or fragment)
chain: B2 chain with A44D, T47A
Kd: 26000 nM

The next lines start with the values.

Kd: 22000 nM
B1: Nrf2_(34–100) E82A (domain or fragment)
chain: B2 chain with A44D, E49A

Kd: 1700 nM
B4: Nrf2_(34–100) E79A (domain or fragment)
chain: B2 chain with A44D, E46A

KD ratio to wild type (KD^T80S/KD^WT): 30
B6: Nrf2_(34–100) T80S (domain or fragment)
chain: B2 chain with A44D, T47S

Kd: 18 nM
B7: Nrf2_(34–100) F83A (domain or fragment)
chain: B2 chain with A44D, F50A

Kd: 10 nM
B9: Nrf2_(1–100) (domain or fragment)
chain: MMDLELPPPGLPSQQDMDLIDILWRQDIDLGVSREVFDFSQRRKEYELEKQKKLEKERQEQLQKEQEKAFFAQLQLDEETGEFLPIQPAQHIQSETSGSA
